# According to publication PMC4824412:
# “And” between values parts separate entries of the source, which are not always exact repeats. Identical values can stand only once.
# Tests used:
# [1] = target: GARPTS, soluble tail switch mutant of human GARP (glycoprotein A repetitions predominant) (human) (UniProt Q14392); assay: non-reducing SDS-PAGE and western blot of disulfide-linked complexes; GARPTS (300 ng) and a mixture of pro-TGFβ and latent TGFβ (600 ng) incubated overnight at RT in redox buffer (oxidized glutathione and 2 mM free cysteine), no pull-down; 10% gel, non-reducing; anti-Strep-tag or anti-His-tag antibodies
# [2] = target: GARPTS, soluble tail switch mutant of human GARP (glycoprotein A repetitions predominant) (human) (UniProt Q14392)
substance,measurement,setting,value
recombinant latent TGFβ (furin-cleaved pro-TGFβ; LAP non-covalently bound to the mature cytokine) (complex),stoichiometry N (GARP per TGFβ),[1],2 and 1
same,proliferation of Mv1Lu cells with a constant 60 ng/ml latent TGFβ pre-incubated with 10-40 ng/ml GARPTS; value at approximately 40 ng/ml (0.5 nM) GARPTS,[2],< 60%
recombinant pro-TGFβ (not cleaved by furin) (natural protein),stoichiometry N (GARP per TGFβ),[1],2 and 1
